Source: paper PMC8349882 (Molecular cell, 2021)

Molecular target: the molecule itself
Assay: crystal structure

B1: GLR3.4-S1S2 (isolated ligand-binding domain of GLR3.4) (domain or fragment, Arabidopsis thaliana)
chain: KPLRIGVPNRVSYTDYVSKDKNPPGVRGYCIDVFEAAIELLPYPVPRTYILYGDGKRNPSYDNLVNEVVADNFDVAVGDITIVTNRTRYVDFTQPFIESGLVVVAPVKEAGTIEGIDSLVTSNEPIGVQDGTFARNYLINELNILPSRIVPLKDEEQYLSALQRGPNAGGVAAIVDELPYIEVLLTNSNCKFRTVGQEFTRTGWGFAFQRDSPLAVDMSTAILQLSEEGELEKIHRKWLNYKHECS
**Q.** With B1 as the protein, how does the “stoichiometry N” value read?
**A.** 2
